Data as given in the nanobody polyreactivity screen of Harvey et al. (2022).

Experiment: yeast display, Sf9 membrane polyspecificity reagent, FACS + sequencing; frameworks hold sequencing errors
Outline: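 After 36–48 hours of galactose induction, yeast (Saccharomyces cerevisiae BJ5465) displaying a synthetic nanobody library were stained at 4 °C for 1 hour with 10% biotinylated, detergent-solubilized Sf9 membrane reagent. Streptavidin microbeads enriched the stained cells before FACS sorting into low and high (top ~1%) gates on anti-HA and streptavidin fluorescence. Each clone's polyreactivity label reflects its gate of origin.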

## QVQLVESGGGLVQAGGSLRLICAASGFIFDAYAMGWYRQAPGKERELVAAISRTGGSTYYADSVKGRFTISRDNAKNTVYLQMNSLKPEDTAVYYCTAYKSHDDYYWGQGTQITVSS
  polyreactivity (PSR sort gate): high polyreactivity

## QVQLVESGGGLVQAGGSLRLSCAASGNIFSRYAMGWYRQAPGKERELVASISRGGRTNYADSVKGRFTISRDNAKNTVYLQMNSLKPEDTAVYYCAKGGKGYWHPTGPYPFNYWGQGTQVTVSS
  polyreactivity (PSR sort gate): high polyreactivity

## QVQLVDSGGGLVQAGGSLRLSCAASGSTFQGNTMGWYRQAPGKERELVAAISRSGGITYYADSVKGRFTISRVNAKNTVYLQMNSLKPEDTAVYYCAAKQVFTAGRSVDYWGQGTQVTVSS
  polyreactivity (PSR sort gate): high polyreactivity

## QVQLVESGGGLVQAGGSLRLSCAASGFTFPPYAMGWYRQAPGKERELVAAISSAGSTKYADSVKGRFTISRDNAKNTVYLQMNSLKPEDSAVYYCDKKGRTARGRYDYWGQGTQVTVSS
  polyreactivity (PSR sort gate): low polyreactivity

## QVQLEESGGGLVQAGGSLRLSCAASGYTSLYYGMGWYRQAPGKERELVASISRGGSTYADSVKGRFTISRDNAKNTVYLLMNRLKPEDTAVYYCNADGGWDDPWSGWVEYDYWGQGTQVTGSS
  polyreactivity (PSR sort gate): low polyreactivity

## QVQLVESGGGLVQAGGSLRLSCAASGRIFYGYTMGWYRQAPGKERELVAAITWSGVSTYADSVKGRFTISRDNAKNTVYLQMNSLKPEDTAVYYCNADPIYGKRWRYYYWGQGTQVTVSS
  polyreactivity (PSR sort gate): high polyreactivity

## QVQLVESGGGLVQAGGSLRLSCAASGFIIYRYAMGWYRQAPGKEREVVATISSRGGSTYYADSVKGRFTISRDNAKNTVYLQMNSLKPEDTAVYYCNVRTRVKTTQSYDRNNYYWGQGTQVTVSS
  polyreactivity (PSR sort gate): high polyreactivity

## QVQLVESGGGLVQAGGSLRLSCAASGRTFYSYAMGWYRQAPGKERELVAAINTSGGRTHYADSVKGRFTISRDNAKNTVYLQMNCMKPEDTAVYYCAKLARSGTLTYYYWGQGTQVNVSS
  polyreactivity (PSR sort gate): high polyreactivity

## QVQLVESGGGLVQAGGSLRLSCAASGSILVYYAMGWYRQAPGKERELVAAISSGGSTNYADSVKGRFTISRDNAKNTVYLQMNSLKPEDTAVYYCAKESGWVGAIHYDYWGQGTQVTVSS
  polyreactivity (PSR sort gate): low polyreactivity

## QVQLVESGGGLVQAGGSLRLSCAASGSIFQVYAMGWYRQAPGNESEFVADIDWSGESTYYADSVKGRFTISRDNAKNTVYLQMNSLKPEDTAVYYCAAEDGYVTWDRDYEYWGQGTQVTVSS
  polyreactivity (PSR sort gate): low polyreactivity

## QVQLVESGGGLVQAGGSLRLSCAASGSTFYGYAMGWYRQAPGKERELVAAITVRGGSTYYADSVKGRFTISRDNAKNTVYLQMNSLKPEDTAVYYCAKGRLRRTYYRNKFSFDYWGQGTQVTVSS
  polyreactivity (PSR sort gate): high polyreactivity

## QVQLVESGGGLVQAGGSLRLSCAASGSIIAGYAMGWYRQAPGKERELVAAISQRGTSTYYADSVKGRFTISRDIAKNTVYLQMNSLKPEDTSVYYCAARVVSRMDYWGQGTQVTVSS
  polyreactivity (PSR sort gate): high polyreactivity

## QVQLVESGGGLVQAGGSLRLSCAASGFTFLTNAMGWYRQAPGKERELVAAISSGGNTNYADSVKGRFTISRDNAKNTVYLQMNSLKPEDTAVYYCAADNDYLSSQVSYDYWGQGTQVTVSS
  polyreactivity (PSR sort gate): low polyreactivity

## QVQLVESGGGLVQAGGSLRLSCAASGFIYKYAMGWYRPAPGKERELVAAISQNGGSTRYADSVKGRFTISRDNAKNTVYLQMNSLKPEDTAVYYCNTGVARGYKYWGQGTQVTVSS
  polyreactivity (PSR sort gate): high polyreactivity

## QVQLVESGGGLVQAGGSLRLSCAASGRIFEHNAMGWYRQAPGKEREFVAAISSSGGSTYYADSVKGRITISRDNAKNTVYLQMNSLKPVDTAVYYCNAGSTYYERNYWGQGTQVTVSS
  polyreactivity (PSR sort gate): low polyreactivity

## QVQLQESGGGLVQAGGSLRLSCAAIGSISILQSMGWYRQAPGKERELVAGINWGATTYYADSVKGRLTTSRDYAKNTVYLQMNSLKPEDTAVYYCAVPTYYTYPLLYWGQGTQVTVSS
  polyreactivity (PSR sort gate): low polyreactivity

## QVQLVESGGGLVQAGGSLRLSCAASGRTFGGNVRVWYRQAPGKERELVAAISYSGRSTHYAESVKGRFTISRDNAKNTVILQMNSLKPEDTAVYYCNKPFPYYPDGPNGYDYWGQGTKVTVSS
  polyreactivity (PSR sort gate): low polyreactivity

## QVQIVESGGGLVQARGSLRLSFAASGFTFSHYAMGWYRQAPGKERELVAAISASGGRTYFADSVKGRFTISRDNAKNTVYVQMNSLKPEDTAVYYCAAKLYDCGGRYWYVYWGQGTQVTVSS
  polyreactivity (PSR sort gate): high polyreactivity

## QVQLVESGGGLVQAGGSLRLSCAASGGIFPYYAMGWYRQAPGKERELVAGISQNDGRTYYADSVKGRFTISRDNAKNTVYLQMNSLKPEDTAVYYCATDYWYPRYGYWGQGTQVTVSS
  polyreactivity (PSR sort gate): low polyreactivity

## QVQLVESGGGLVQAGGSLRLSCAASGGIFSSYAMGWYRPAPGKERELVAAIDSDGTTYYADSVKGRFTISRDNAKNTVYLQMNSLKPEDTAVYYCATGYPVRYRGYLNWSYYAYDYWGQGTQVTVSS
  polyreactivity (PSR sort gate): low polyreactivity

## QVQLVESGGGLVQAGGSLRLSCAASGIIFITNAMGWYRQAPGKERDLVAVISFSGGGTYADSVKGRFTISRDNAKNTVYLQMNSLTPEDTAVYYCAKYWLSALTLEDDYWGQGTQVTVSS
  polyreactivity (PSR sort gate): low polyreactivity

## QVQLVESGGGLVQAGGSLRLSCAASGSTFLSYVMGWYRQAPGKERELVAAISGITGSTYYADSVKGRFTLSRDNAKNTVYLQMNSLKPQDTAVYYWAKVYGYNRLFYYRYDYWGQGTQVTVSS
  polyreactivity (PSR sort gate): high polyreactivity

## QVQLVESGGGLVQAGGSLRLSCAASGRIFVDYAMGWNRQAPGKERELVAAISWSGRTYYADSVKGRFTISRDNAKNTVYLQMNSLKPEDTAVYYCNAAYHYYGKYDYWGQGTQVTVSS
  polyreactivity (PSR sort gate): high polyreactivity

## QVQLVESRGGLVQAGGSLRLSCAASGSTFGPYTMGWYRQAPGKERELDAAISWNGGRTSYADSVKGRFTLSRDNAKNTVYLQKNSLKPEDTAGYYCAAGYFVGIYKRFYWGQGTQVTVSS
  polyreactivity (PSR sort gate): high polyreactivity

## QVQLVESGGGLVQAGGSLRLSCAASGYTFEPYAMGWYRQAPGKESELVAAISRGGTTNYADSVKGRFTISRDNAKNTVYLQINSLKPEDTAVYYCASSYFRRVFYSIYEYDYWGQGTQVTVSS
  polyreactivity (PSR sort gate): low polyreactivity

## QVQLVESGGGLVQAGGSLRLSCAASGRIFQYYTMGWYRQAPGKERELVAAITWSSSRTYYADSVKGRVTISRDNAKNTVYLQMNSLKPEDTAVNYCAAEAQAAWNDYTYWGQGTQVTVSS
  polyreactivity (PSR sort gate): high polyreactivity

## QVQLVESGGGLVQAGGSLRLSCAASGRIFYFYAMGWYRQAPGKERELVAAISRRGGTTNYADSVKGRFTISRDNAKNTVYLQMNSLKPEDTAVYYCAADYQSVGGAEYDYWGQGTQVTVSS
  polyreactivity (PSR sort gate): high polyreactivity

## QVQLVESGGGLVQAGGSLRLSCAASGSTFGHYAMRSYRQAPGKERQLVAGITDTDNHELRRLCEGRFTISRDNAKNTVYLQMNSLKPEDTAVYDCDAGSNAVFYDYGYWGQGTQVTVSS
  polyreactivity (PSR sort gate): low polyreactivity

## QVQLVESGGGLVQAGGSLLLSCAASGITSYYYAMGGYRQAPGKERELVAAITRGGRTKYADSVKGRFTISRDNAKNTVYLQMNSLKPEDTAVYYCAADVWGQGTQVTVSS
  polyreactivity (PSR sort gate): high polyreactivity

## QVQLVESGGGLVQAGGSLRLSCAASGLTFKDNVMGWYRQAPGKERELVAAISSSGGSTYYADSVKGRFTLSRDNAKNTVYLQMNSLKPEDTAVYYCAAPTFSRYYYWGQGTQVTVSS
  polyreactivity (PSR sort gate): high polyreactivity

## QVQLVESGGGLVQAGGSLRLSCAASGRIFKGYAMGWYRQAPGKERELVAAITWRGGTTYYADSVKGRFTISRDNAKNTVYLQMNSLKPEDTAVYYCATTRYPRSYQEFGYWGQGTQVTVSS
  polyreactivity (PSR sort gate): high polyreactivity

## QVQLVESGGGLVQSGGSLRLSCAASGSILYGYAMGWYRQAPGKERELVAAIRWTGGSTYYADSVKGRFTISRDNAKNTVYLQMNSLKPEDTAVYFCAAEYNLRTYWGDYWGQGTQVTVSS
  polyreactivity (PSR sort gate): low polyreactivity

## QVQLVDSGGGLVQAGGSLRLSCAASGRTFSLYAMGWYRQAPGKERELVATISQSGGSTYYADSVKGRFTISRDNAKNTVYLQMNSQKPEDTAVYNCAAGGIYLDYFGQGTQVTVSS
  polyreactivity (PSR sort gate): low polyreactivity

## QVQLVESAGGLVQAGVSLRLSCAASGIIFPYYTMGWYRQAPGKERELVARITNGGRTYYADSVKGRFTISRDNAKNTVYLQMNSLKPEDTAVYYCNAGRYYIGGYWGQGTQVTVSS
  polyreactivity (PSR sort gate): high polyreactivity

## QVQLVESGGGLVQAGGSLRLSCAASGSIFKSYAMGWYRQAPGKERELVAAISGSGGRTYYADSVKGRFTISRDNAKNTAYLQMNSLKPEDTAVYYCNALASIRTHTGYAYSPPYDYWGQGTQVTVSS
  polyreactivity (PSR sort gate): high polyreactivity

## QVQLVQSGGGLVQEGGSLRLSCAASGSTLSIYAMGWYRQAPGKERELVASITTSGSSTYYADSVKGRFTISRDNAKNTVYLQMNSLKPEDTAVYYCAKRKSYRSQPWGYDYWGQGTQVTVSS
  polyreactivity (PSR sort gate): high polyreactivity

## QVQLVESGGGLVQAGGSLRLSCAASGRIFNGNDMGWYRQAPGKERELVAAISYSGGSTYYADSVKGRFTISRDNAKNTVYLQMNSLKPEDTAVYYCAALTIRVGSLGRDYWVQGTQVTVSS
  polyreactivity (PSR sort gate): low polyreactivity

## QVQLVESGGGLVQAGGSLRLSCAASGSIFYYNGMGWYRHAPGKERELVASISRGGGTNYADSVKGRFTISRDNAKNTVYLQMNSLKPEDTAVYYCNARYPRSSPFGYWGLGTQVTVSS
  polyreactivity (PSR sort gate): high polyreactivity

## QVQLVESGGGLVQAGGSLRLSCAASGSIFSRYAMGWYRQSPGKERELVAAISQRAGSTYYADSVKGRFTISRDNAKNTVYLQMNSLKPEDTAVYYCAARRRGRKERGEDYWGQGTQVTVSS
  polyreactivity (PSR sort gate): high polyreactivity

## QVQLVESGGGLVQAGGSLRLSCAASGSIFYFNAMGWYRQAPGKERELVADISGSGGSTYYADSVKGRFTISRDNAKNTVYLQMNSLKPEDTAVYYCAARLYLHSWWYYAYDYWGQGTQVTVSS
  polyreactivity (PSR sort gate): high polyreactivity

## QVQLVESGGGLVQAGGSLRLSCAASGSIYVNTMGWYRQAPGKEREFVAAITRRGGSTYYADSVKGRFTISRDNAKNTVYLQMNSLKPEDTAVYYCNADNRYSAHDYWGQGTQVTVSS
  polyreactivity (PSR sort gate): high polyreactivity

## QVQLVESGGGLVQAGGSLRLSCAASGSTFKQYAMGWYRQAPGKERELVADINVRDGGTYYADSVKGRFTISRDNAKNTVYLQMNSLKPEDTAVYYCAKDYYACYWEMDYWGQGTQVTVSS
  polyreactivity (PSR sort gate): low polyreactivity

## QVQLVESGGGLVQAGASLRLSCAASGFTFVHYALGWYRQAPGKERELVAAITWNGGRTYYADSVQGRFTISRDNAKNTVYFQMNSLKPEDTAVYYCNAVRITYGRYDLDYWGQGTQVTVSS
  polyreactivity (PSR sort gate): high polyreactivity
